Laboratory results taken from paper PMC5303546 (Biochemical Pharmacology, 2017).

Columns and labels:
[1] = test system: PTH2; details: cited from earlier work
From the text: Despite the success of the chimeric and single residue-swap studies of PTH1 and PTH2 described above, [14], [15], [20], which identified PTH/PTHrP binding and selectivity determinants at PTH1 and PTH2, the nature of the TIP39 selection has not been explored to the same degree.

[2] = biological target: PTH2 receptor mutant Tyr-318-Phe (human) (UniProt P49190)
Sequence of PTH2 receptor mutant Tyr-318-Phe (human) (P49190 25-550 Y318F): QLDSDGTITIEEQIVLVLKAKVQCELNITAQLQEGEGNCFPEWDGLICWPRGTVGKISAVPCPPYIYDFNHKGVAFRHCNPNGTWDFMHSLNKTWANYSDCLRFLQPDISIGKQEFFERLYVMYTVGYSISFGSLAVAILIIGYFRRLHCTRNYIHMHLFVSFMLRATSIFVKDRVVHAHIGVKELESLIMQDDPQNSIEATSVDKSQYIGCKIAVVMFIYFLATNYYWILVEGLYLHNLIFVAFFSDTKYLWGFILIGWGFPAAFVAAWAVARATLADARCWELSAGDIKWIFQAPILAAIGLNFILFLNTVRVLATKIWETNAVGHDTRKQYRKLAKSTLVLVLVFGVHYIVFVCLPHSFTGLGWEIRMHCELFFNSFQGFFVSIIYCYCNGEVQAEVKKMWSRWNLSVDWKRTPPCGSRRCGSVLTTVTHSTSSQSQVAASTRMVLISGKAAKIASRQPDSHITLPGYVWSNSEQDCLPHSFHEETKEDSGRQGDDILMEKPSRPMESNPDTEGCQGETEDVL

[3] = biological target: parathyroid hormone 2 receptor (PTH2), wild type, human (human) (UniProt P49190)
Sequence of parathyroid hormone 2 receptor (PTH2), wild type, human (human) (P49190 25-550): as the sequence (P49190 25-550 Y318F) above, with F294Y counted along it

[4] = biological target: PTH2 receptor mutant Tyr-318-Phe (human) (UniProt P49190); experiment: radioligand binding; whole-cell competition: HEK-293 cells expressing the receptor in poly-D-lysine coated 24-well plates; 50 pM ^125I-rPTH(1–34); unlabelled ligand 10 μM–10 pM; room temperature, 2 h; Whole Cell Binding Buffer pH 7.7 with 5% horse serum and 0.5% foetal calf serum; IC50 from a single site model with the Hill co-efficient constrained to 1
[5] = biological target: parathyroid hormone 2 receptor (PTH2), wild type, human (human) (UniProt P49190); experiment: as above
[6] = biological target: PTH2 receptor mutant Tyr-318-Ile (human) (UniProt P49190); experiment: as above
Sequence of PTH2 receptor mutant Tyr-318-Ile (human) (P49190 25-550 Y318I): as the sequence (P49190 25-550 Y318F) above, with F294I counted along it

[7] = test system: PTH2R (V296S); experiment: LANCE cAMP screen, mutant PTH2; details: 1 μM PTH(1–34), 10,000 cells/well, 30 min
Method: (§1) These various pcDNA3 constructs were used to express the wild type human PTH1 and PTH2 receptors, and mutant PTH2 receptors, in Human Embryonic Kidney (HEK)-293 cells.
(§2) The HEK-293 cells were cultured in Dulbecco’s Modified Eagle’s Medium (DMEM, from Sigma, Poole, UK) supplemented with 10% foetal calf serum (Lonza Wokinham Ltd., Wokingham, UK) and containing 2 mM L-glutamine, 100 U/ml penicillin and 100 μg/ml streptomycin (Invitrogen, Paisley, UK). Cells were transfected with pcDNA3 containing the cDNA encoding the receptors, using the SuperFect® Transfection Reagent (Qiagen Ltd., Crawley, UK.) and stable clones were selected with G418 antibiotic (Invitrogen, Paisley, UK) as follows. Cells were seeded into a 25 cm^2 flask containing 10 ml of media and transfected when they reached 50–80% confluence. To do this, 20 μl of SuperFect® was mixed with a DNA solution consisting of 5 μg plasmid DNA in 150 μl DMEM. The DNA was incubated with the reagent for 10 min at room temperature after which 1 ml of media was then added and mixed gently. […]
(§3) The LANCE cAMP kit (PerkinElmer Life and Analytical Sciences) was used alongside the manufacturer’s instructions with some minor adaptations as described. […] The acceptor fluorescence signal was read at 665 nm on a ViewLux instrument (Perkin Elmer).

[8] = test system: PTH2R (L399M); experiment: LANCE cAMP screen, mutant PTH2; details: 1 μM PTH(1–34), 10,000 cells/well, 30 min
Method: as §1, §2, §3

[9] = test system: PTH2R (A297V); experiment: LANCE cAMP screen, mutant PTH2; details: 1 μM PTH(1–34), 10,000 cells/well, 30 min
Method: as §1, §2, §3

[10] = test system: PTH2R (C381A); experiment: LANCE cAMP screen, mutant PTH2; details: 1 μM PTH(1–34), 10,000 cells/well, 30 min
Method: as §1, §2, §3

[11] = test system: PTH1; experiment: LANCE cAMP screen, wild type PTH1; type: cell-based, human; details: 1 μM PTH(1–34); HEK-293 stable cells, 10,000 cells/well, 30 min stimulation
Method: (§4) The full-length cDNA of human PTH1 and PTH2 (gift from GlaxoSmithKline) in pcDNA3 (Invitrogen, Paisley, UK) were used to express wild type receptors as described previously [14]. […] These various pcDNA3 constructs were used to express the wild type human PTH1 and PTH2 receptors, and mutant PTH2 receptors, in Human Embryonic Kidney (HEK)-293 cells.
(§5) The HEK-293 cells were cultured in Dulbecco’s Modified Eagle’s Medium (DMEM, from Sigma, Poole, UK) supplemented with 10% foetal calf serum (Lonza Wokinham Ltd., Wokingham, UK) and containing 2 mM L-glutamine, 100 U/ml penicillin and 100 μg/ml streptomycin (Invitrogen, Paisley, UK). Cells were transfected with pcDNA3 containing the cDNA encoding the receptors, using the SuperFect® Transfection Reagent (Qiagen Ltd., Crawley, UK.) and stable clones were selected with G418 antibiotic (Invitrogen, Paisley, UK) as follows. Cells were seeded into a 25 cm^2 flask containing 10 ml of media and transfected when they reached 50–80% confluence. To do this, 20 μl of SuperFect® was mixed with a DNA solution consisting of 5 μg plasmid DNA in 150 μl DMEM. […]
as §3

[12] = test system: PTH2R (A293V); experiment: LANCE cAMP screen, mutant PTH2; details: 1 μM PTH(1–34), 10,000 cells/well, 30 min
Method: as §4, §5, §3

[13] = test system: PTH2R (A295V); experiment: LANCE cAMP screen, mutant PTH2; details: 1 μM PTH(1–34), 10,000 cells/well, 30 min
Method: as §4, §5, §3

[14] = test system: PTH2R (G327V); experiment: LANCE cAMP screen, mutant PTH2; details: 1 μM PTH(1–34), 10,000 cells/well, 30 min
Method: as §1, §2, §3

[15] = test system: PTH2R (T192V); experiment: LANCE cAMP screen, mutant PTH2; details: 1 μM PTH(1–34), 10,000 cells/well, 30 min
Method: as §4, §5, §3

[16] = test system: PTH2R (V241T); experiment: LANCE cAMP screen, mutant PTH2; details: 1 μM PTH(1–34), 10,000 cells/well, 30 min
Method: as §4, §5, §3

[17] = test system: PTH2R (Y318I); experiment: LANCE cAMP screen, mutant PTH2; details: 1 μM PTH(1–34), 10,000 cells/well, 30 min
Method: as §1, §2, §3

[18] = test system: PTH2R (V380 M); experiment: LANCE cAMP screen, mutant PTH2; type: cell-based, human; details: 1 μM PTH(1–34), 10,000 cells/well, 30 min
Method: as §1, §2, §3

[19] = test system: PTH2R (C397Y); experiment: LANCE cAMP screen, mutant PTH2; details: 1 μM PTH(1–34), 10,000 cells/well, 30 min
Method: as §1, §2, §3

[20] = test system: PTH2R (M242F); experiment: LANCE cAMP screen, mutant PTH2; details: 1 μM PTH(1–34), 10,000 cells/well, 30 min
Method: as §4, §5, §3

[21] = test system: PTH2R (I244L); experiment: LANCE cAMP screen, mutant PTH2; details: 1 μM PTH(1–34), 10,000 cells/well, 30 min
Method: as §4, §5, §3

[22] = test system: PTH2R (A320V); experiment: LANCE cAMP screen, mutant PTH2; details: 1 μM PTH(1–34), 10,000 cells/well, 30 min
Method: as §1, §2, §3

[23] = test system: PTH2R (L382T); experiment: LANCE cAMP screen, mutant PTH2; details: 1 μM PTH(1–34), 10,000 cells/well, 30 min
Method: as §1, §2, §3

[24] = test system: PTH2R (V146 M); experiment: LANCE cAMP screen, mutant PTH2; type: cell-based, human; details: 1 μM PTH(1–34), 10,000 cells/well, 30 min
Method: as §4, §5, §3

[25] = biological target: PTH2 receptor mutant Tyr-318-Ile (human) (UniProt P49190)

| cAMP accumulation (LANCE), EC50; 2500 cells/well, 10 min [2] | cAMP accumulation (LANCE), pEC50; 2500 cells/well, 10 min [2] | cAMP accumulation (LANCE), EC50; 2500 cells/well, 10 min [3] | cAMP accumulation (LANCE), pEC50; 2500 cells/well, 10 min [3] | IC50 [4] | pIC50 [4] | IC50 [5] | pIC50 [5] | IC50 [6] | pIC50 [6] | cAMP accumulation (LANCE), EC50; 2500 cells/well, 10 min [25] | cAMP accumulation (LANCE), pEC50; 2500 cells/well, 10 min [25] | Compound | further results |
| --- | --- | --- | --- | --- | --- | --- | --- | --- | --- | --- | --- | --- | --- |
| > 1 µM | < 6 | 0.123 µM | 6.91 | 4.27 µM | 5.37 | 1.05 µM | 5.98 | 8.71 µM | 5.06 | – | – | TIP (6–39) (peptide) | – |
| 0.00479 µM | 8.32 | 0.00012 µM | 9.92 | 0.417 µM | 6.38 | 0.0589 µM | 7.23 | 1.48 µM | 5.83 | 0.0417 µM | 7.38 | TIP (2–39) (peptide) | – |
| 0.912 µM | 6.04 | 0.017 µM | 7.77 | 3.24 µM | 5.49 | 0.871 µM | 6.06 | 7.24 µM | 5.14 | > 1 µM | < 6 | TIP (5–39) (peptide) | – |

Further lines, the compound ahead of its results:

| Compound | cAMP accumulation (LANCE), EC50; 2500 cells/well, 10 min [2] | cAMP accumulation (LANCE), pEC50; 2500 cells/well, 10 min [2] | cAMP accumulation (LANCE), EC50; 2500 cells/well, 10 min [3] | cAMP accumulation (LANCE), pEC50; 2500 cells/well, 10 min [3] | IC50 [4] | pIC50 [4] | IC50 [5] | pIC50 [5] | IC50 [6] | pIC50 [6] | cAMP accumulation (LANCE), EC50; 2500 cells/well, 10 min [25] | cAMP accumulation (LANCE), pEC50; 2500 cells/well, 10 min [25] | further results |
| --- | --- | --- | --- | --- | --- | --- | --- | --- | --- | --- | --- | --- | --- |
| TIP (7–39): TIP39 truncated by the first 6 residues, literature peptide (ref 21) (DAAFRERARLLAALERRHWLNSYMHKLLVLDAP; Tuberoinfundibular peptide of 39 residues; UniProt Q96A98 68-100, looked up, fragment) | – | – | – | – | – | – | – | – | – | – | – | – | efficacy at PTH2 [1]: no efficacy |
| CC[C@H](C)[C@H](NC(=O)[C@H](CCC(=O)O)NC(=O)[C@H](CO)NC(=O)[C@@H](NC(=O)[C@@H](N)CO)C(C)C)C(=O)N[C@@H](CCC(N)=O)C(=O)N[C@@H](CC(C)C)C(=O)N[C@@H](CCSC)C(=O)N[C@@H](Cc1c[nH]cn1)C(=O)N[C@@H](CC(N)=O)C(=O)N[C@@H](CC(C)C)C(=O)NCC(=O)N[C@@H](CCCCN)C(=O)N[C@@H](Cc1c[nH]cn1)C(=O)N[C@@H](CC(C)C)C(=O)N[C@@H](CC(N)=O)C(=O)N[C@@H](CO)C(=O)N[C@@H](CCSC)C(=O)N[C@@H](CCC(=O)O)C(=O)N[C@@H](CCCNC(=N)N)C(=O)N[C@H](C(=O)N[C@@H](CCC(=O)O)C(=O)N[C@@H](Cc1c[nH]c2ccccc12)C(=O)N[C@@H](CC(C)C)C(=O)N[C@@H](CCCNC(=N)N)C(=O)N[C@@H](CCCCN)C(=O)N[C@@H](CCCCN)C(=O)N[C@@H](CC(C)C)C(=O)N[C@@H](CCC(N)=O)C(=O)N[C@@H](CC(=O)O)C(=O)N[C@H](C(=O)N[C@@H](Cc1c[nH]cn1)C(=O)N[C@@H](CC(N)=O)C(=O)N[C@@H](Cc1ccccc1)C(=O)O)C(C)C)C(C)C [PTH(1–34)] | – | – | – | – | – | – | – | – | – | – | – | – | % maximum PTH(1–34) response [7]: 101 ± 2%; % maximum PTH(1–34) response [8]: 101 ± 1%; % maximum PTH(1–34) response [9]: 100 ± 2%; % maximum PTH(1–34) response [10]: 100 ± 2%; % maximum PTH(1–34) response [11]: 99 ± 2%; % maximum PTH(1–34) response [12]: 99 ± 2%; % maximum PTH(1–34) response [13]: 99 ± 2%; % maximum PTH(1–34) response [14]: 100 ± 2%; % maximum PTH(1–34) response [15]: 102 ± 2%; % maximum PTH(1–34) response [16]: 100 ± 1%; % maximum PTH(1–34) response [17]: 99 ± 1%; % maximum PTH(1–34) response [18]: 102 ± 1%; % maximum PTH(1–34) response [19]: 100 ± 2%; % maximum PTH(1–34) response [20]: 98 ± 2%; % maximum PTH(1–34) response [21]: 100 ± 3%; % maximum PTH(1–34) response [22]: 100 ± 1%; % maximum PTH(1–34) response [23]: 102 ± 2%; % maximum PTH(1–34) response [24]: 102 ± 1% |
| TIP (3–39) (peptide) | 0.00955 µM | 8.02 | 0.00022 µM | 9.66 | 0.479 µM | 6.32 | 0.105 µM | 6.98 | 1.26 µM | 5.9 | 0.0501 µM | 7.3 | – |
| TIP (4–39) (peptide) | 0.0132 µM | 7.88 | 0.00029 µM | 9.54 | 0.603 µM | 6.22 | 0.158 µM | 6.8 | 1.48 µM | 5.83 | 0.0891 µM | 7.05 | – |
